Results on two molecules are retold here after PMC6594998, “Inhibition of CRISPR-Cas9 ribonucleoprotein complex assembly by anti-CRISPR AcrIIC2”.

Series [1] concerns the target T1, Nme1Cas9 (Neisseria meningitidis, UniProt C9X1G5 1-1082).
T1 sequence: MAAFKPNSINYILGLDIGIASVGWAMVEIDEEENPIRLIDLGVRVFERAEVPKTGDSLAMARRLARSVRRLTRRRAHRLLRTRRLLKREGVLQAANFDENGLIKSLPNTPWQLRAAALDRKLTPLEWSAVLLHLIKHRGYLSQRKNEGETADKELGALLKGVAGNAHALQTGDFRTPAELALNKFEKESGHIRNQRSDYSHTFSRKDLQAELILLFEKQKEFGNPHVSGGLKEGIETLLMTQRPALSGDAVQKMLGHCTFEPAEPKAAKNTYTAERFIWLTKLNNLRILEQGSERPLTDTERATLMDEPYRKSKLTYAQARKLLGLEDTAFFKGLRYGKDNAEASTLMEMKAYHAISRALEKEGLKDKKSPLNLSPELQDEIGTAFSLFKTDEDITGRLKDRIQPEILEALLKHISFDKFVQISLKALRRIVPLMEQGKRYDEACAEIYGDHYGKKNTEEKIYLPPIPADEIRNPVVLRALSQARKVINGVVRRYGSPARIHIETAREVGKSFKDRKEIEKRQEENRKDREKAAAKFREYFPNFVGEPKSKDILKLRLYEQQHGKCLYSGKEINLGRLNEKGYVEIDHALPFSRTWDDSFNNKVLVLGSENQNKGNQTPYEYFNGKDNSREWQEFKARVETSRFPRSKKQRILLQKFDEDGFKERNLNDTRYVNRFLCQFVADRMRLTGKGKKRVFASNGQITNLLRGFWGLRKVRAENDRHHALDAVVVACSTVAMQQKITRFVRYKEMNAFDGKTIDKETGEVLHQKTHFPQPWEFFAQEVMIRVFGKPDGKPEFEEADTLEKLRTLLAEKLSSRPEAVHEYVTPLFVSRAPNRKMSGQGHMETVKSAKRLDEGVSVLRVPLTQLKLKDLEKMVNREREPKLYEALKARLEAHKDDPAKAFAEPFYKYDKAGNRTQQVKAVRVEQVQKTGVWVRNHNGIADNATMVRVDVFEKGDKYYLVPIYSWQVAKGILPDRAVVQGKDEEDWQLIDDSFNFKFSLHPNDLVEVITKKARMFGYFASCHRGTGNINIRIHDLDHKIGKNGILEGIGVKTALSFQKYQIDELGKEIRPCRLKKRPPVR
In words: filter binding; no AcrIIC2Nme; 5 mM MgCl2; Filter binding: 20 mM Tris pH 7.5, 100 mM KCl, 5 mM MgCl2, 1 mM DTT, 5% glycerol, 0.01% Igepal, 10 ug/mL yeast tRNA, 10 ug/mL BSA, 37 C, 30 min; ITC: 300 mM NaCl, 20 mM Tris pH 7.5, 20 C; gel filtration: 300 mM NaCl, 20 mM Tris pH 7.5; pull-down: 50 mM Tris pH 7.5, 200 mM NaCl, 5% glycerol, 20 mM imidazole. The conditions noted are these: protein: recombinant; label: radiolabeled; sgRNA with repeat:anti-repeat hairpin and stem loops 1 and 2. On the technique in general: SEC sorts molecules by how far they enter the pores of the column.

In series [2] the target is T1, Nme1Cas9. The experiment in a line: filter binding; no AcrIIC2Nme; Filter binding: 20 mM Tris pH 7.5, 100 mM KCl, 5 mM MgCl2, 1 mM DTT, 5% glycerol, 0.01% Igepal, 10 ug/mL yeast tRNA, 10 ug/mL BSA, 37 C, 30 min; ITC: 300 mM NaCl, 20 mM Tris pH 7.5, 20 C; gel filtration: 300 mM NaCl, 20 mM Tris pH 7.5; pull-down: 50 mM Tris pH 7.5, 200 mM NaCl, 5% glycerol, 20 mM imidazole. The conditions noted are these: protein: recombinant; label: radiolabeled; hairpin.

B1: full length sgRNA (filter binding) (structured_RNA)
RNA: GGUCUGUAAGCGGAUGCCAUAUGGUUGUAGCUCCCUUUCUCGAAAGAGAACCGUUGCUACAAUAAGGCCGUCUGAAAAGAUGUGCCGCAACGCUCUGCCCCUUAAAGCUUCUGCUUUAACGGGCUU
As to B1, the Kd – broadly, the constant that tells how readily two partners part at equilibrium – with Nme1Cas9 [1] amounted to 0.24 ± 0.14 nM. As for GGUUGUAGCUCCCUUUCUCGAAAGAGAACCGUUGCUACAAUAA (structured_RNA) [repeat:anti-repeat (cr:tracr)], in the series with Nme1Cas9 [2], the binding result is reported as “binds”.
